Assay results reported in patent US20200270352A1 (PIERRE FABRE MEDICAMENT, published 2020).

How the values were obtained:
[1] = biological target: T1, human insulin receptor on cells (IM9 cells; hIR+ transfected cell line, NIH 3T3 IR+) (human, UniProt P06213 28-1382); assay: FACS titration on NIH 3T3 IR+ cells
T1 construct: whole, on cells; also called human IR

[2] = biological target: T2, human IGF-1R, native, on cells (MCF-7, hIGF-1R transfected cells, primary normal human cells) (human, UniProt P08069 31-1367); assay: cell-based or functional assay
[3] = biological target: T2, human IGF-1R, native, on cells (MCF-7, …); assay: cell-based or functional assay; remark: listed apart in the source
[4] = biological target: T3, rmIGF-1R protein (murine IGF-1R extracellular domain, R&D Systems cat 6630-GR/Fc) (murine, UniProt Q60751 31-936); assay: ELISA on coated rmIGF-1R, SNT at 5 µg/ml
T3 construct: extracellular domain; Bought reagent; not shown: Fc part implied by the catalogue number /Fc; not described
Procedure: In addition three ELISAs were performed (either before or after cloning) to study the binding of antibodies on the recombinant human (hIGF-1R) and murine (mIGF-1R) proteins, and on the recombinant human Insulin Receptor (hIR) protein. […] The plates were then blocked with PBS containing 0.5% gelatin (#22151, Serva Electrophoresis GmbH, Heidelberg, Germany) for 2 h at 37° C. Once the saturation buffer discarded by flicking plates, 100 μl of each supernatant dilution were added to each well (either undiluted hybridoma supernatant either supernatant serial dilutions) and incubated for 1 h at 37° C. […] Then, ELISA plates were washed 3-times and the TMB (#UP664782, Uptima, Interchim, France) substrate is added. After a 10 min incubation time at room temperature, the reaction was stopped using 1 M sulfuric acid and the optical density at 450 nm is measured.

[5] = biological target: T4, monkey IGF-1R on COS-7 cells (African green monkey kidney) (monkey (African green monkey)); assay: FACS on Cos-7 cells (monkey IGF1R+), SNT at 5 µg/ml
T4 construct: whole, on cells; also called monkey native IGF-1R

[6] = biological target: T2, human IGF-1R, native, on cells (MCF-7, …); assay: cell-based or functional assay; remark: listed apart in the source
[7] = biological target: T2, human IGF-1R, native, on cells (MCF-7, …); assay: cell-based or functional assay; remark: listed apart in the source

T3 sequence (Q60751 31-936): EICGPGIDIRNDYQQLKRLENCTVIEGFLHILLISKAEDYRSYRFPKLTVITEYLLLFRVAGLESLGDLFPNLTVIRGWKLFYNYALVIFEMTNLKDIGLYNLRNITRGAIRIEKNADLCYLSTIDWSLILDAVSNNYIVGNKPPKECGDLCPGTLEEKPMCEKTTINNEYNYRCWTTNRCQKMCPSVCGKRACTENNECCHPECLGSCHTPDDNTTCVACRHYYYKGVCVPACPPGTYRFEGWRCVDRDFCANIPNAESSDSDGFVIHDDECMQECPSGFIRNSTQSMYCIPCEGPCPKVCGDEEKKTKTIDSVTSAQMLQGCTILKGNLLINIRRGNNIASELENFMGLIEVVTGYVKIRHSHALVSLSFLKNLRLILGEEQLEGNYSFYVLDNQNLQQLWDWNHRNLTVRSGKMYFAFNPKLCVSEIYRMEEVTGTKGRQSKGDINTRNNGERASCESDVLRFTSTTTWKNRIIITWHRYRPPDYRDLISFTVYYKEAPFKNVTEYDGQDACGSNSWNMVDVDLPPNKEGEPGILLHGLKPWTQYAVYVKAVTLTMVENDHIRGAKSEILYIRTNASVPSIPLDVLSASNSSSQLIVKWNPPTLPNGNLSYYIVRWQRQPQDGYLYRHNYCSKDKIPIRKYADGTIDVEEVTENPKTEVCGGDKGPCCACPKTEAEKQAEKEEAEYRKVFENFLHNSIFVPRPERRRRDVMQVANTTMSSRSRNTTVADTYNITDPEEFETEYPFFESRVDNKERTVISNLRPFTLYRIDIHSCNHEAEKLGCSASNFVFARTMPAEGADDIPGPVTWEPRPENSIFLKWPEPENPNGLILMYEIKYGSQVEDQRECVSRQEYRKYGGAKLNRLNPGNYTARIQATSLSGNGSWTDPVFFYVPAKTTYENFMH

Row | inhibition of hIGF-1R phosphorylation in response to IGF-1 (MCF-7 cells) [3] [%] | D.O 450 nm [4] [OD 450 nm] | % of pIGF-1R compared to IGF-1 (MCF-7 cells, 10 µg/ml Ab) [3] [%] | ΔMFI (MFI 4°C - MFI 37°C, MCF-7) [6] [MFI] | ΔMFI_EC50 (MCF-7) [6] | MCF7 internalisation assay: % remaining rh IGF1R [7] [%] | MCF7 internalisation assay: Δ (MFI 4°C - MFI 37°C) [7] [MFI] | Binder | further results
1 | – | – | – | – | – | – | – | humanized antibody hz208F2 VH3/VL3 (hz208F2 H026/L024) (antibody, human IgG1, kappa, V domains shown, also called H26/L024; first humanized form of 208F2) VH: QVQLVQSGAEVKKPGASVKMSCKASGYTFTSYYIYWVKQAPGQGLEWLGWIWPGDGSTKYNEKFQGRVTLTADKSSNTAYMFLSSLRSEDTAVYFCASPMITPNYAMDYWGQGTLVTVSS VL: DIQMTQSPSSLSASVGDRVTISCRASQDISKYLNWYQQKPGKAPKLLIYYTSRLHSGVPSRFSGRGSGTDYSLTISNLQPEDFATYFCQQGSTLPYTFGGGTKVEIKR | binding result [1]: no binding (tested: log[M] about -7.2 (about 6e-8 M)); % internalization (MCF-7) [2]: 87%; ΔMFI (MFI 4°C - MFI 37°C, MCF-7, 10 µg/ml, 4 h) [2]: 344 MFI
2 | > 80 | 0.102 | – | – | – | – | – | murine antibody 212A11 (hybridoma CNCM I-4773) (antibody, V domains shown, also called m212A11) VH: QVQLQQSGPELVKPGASVKMSCKASGYTFTSYYIHWVKQRPGQGLEWIGWIWPGDGSTKYNEKFKGKTTLTADKSSSTAYMFLSSLTSEDSAVYFCASPMITPNYAMDYWGQGASVTVSS VL: DIQMTQTTSSLSASLGDRVTISCRASQDINKYLNWYQQQPDGTVKLLIYYTSRLHSGVPSRFSGRGSGTDYSLTISNLEQEDIATYFCQQGSTLPYTFGGGTKLEIK | MFI [5]: 126 MFI
3 | – | – | < 10 | 322 | 2.7e-10 | – | – | chimeric antibody c212A11 (antibody, human IgG1, kappa, V domains shown) VH: QVQLQQSGPELVKPGASVKMSCKASGYTFTSYYIHWVKQRPGQGLEWIGWIWPGDGSTKYNEKFKGKTTLTADKSSSTAYMFLSSLTSEDSAVYFCASPMITPNYAMDYWGQGASVTVSS VL: DIQMTQTTSSLSASLGDRVTISCRASQDINKYLNWYQQQPDGTVKLLIYYTSRLHSGVPSRFSGRGSGTDYSLTISNLEQEDIATYFCQQGSTLPYTFGGGTKLEIKR | –
4 | – | – | < 10 | 288 | 1.8e-10 | – | – | chimeric antibody c208F2 (antibody, human IgG1, kappa, V domains shown) VH: QVQLQQSGPELVKPGASVKMSCKASGYTFTSYYIYWVKQRPGQGLEWLGWIWPGDGSTKYNEKFKDKTTLTADKSSNTAYMFLSSLTSEDSAVYFCASPMITPNYAMDYWGQGASVTVSS VL: DIQMTQTTSSLSASLGDRVTISCRASQDISKYLNWYQQQPDGTIKLLIYYTSRLHSGVPSRFSGRGSGTDYSLTISNVEQEDIATYFCQQGSTLPYTFGGGTKLEIKR | % internalization (MCF-7) [2]: 82%; ΔMFI (MFI 4°C - MFI 37°C, MCF-7, 10 µg/ml, 4 h) [2]: 278 MFI
5 | > 80 | 0.099 | – | – | – | 27 | 261 | murine antibody 208F2 (hybridoma CNCM I-4757) (antibody, V domains shown, also called m208F2) VH: QVQLQQSGPELVKPGASVKMSCKASGYTFTSYYIYWVKQRPGQGLEWLGWIWPGDGSTKYNEKFKDKTTLTADKSSNTAYMFLSSLTSEDSAVYFCASPMITPNYAMDYWGQGASVTVSS VL: DIQMTQTTSSLSASLGDRVTISCRASQDISKYLNWYQQQPDGTIKLLIYYTSRLHSGVPSRFSGRGSGTDYSLTISNVEQEDIATYFCQQGSTLPYTFGGGTKLEIK | MCF7 internalisation assay: MFI 37°C [7]: 94 MFI; % internalization (MCF-7) [2]: 88%; ΔMFI (MFI 4°C - MFI 37°C, MCF-7, 10 µg/ml, 4 h) [2]: 294 MFI
6 | – | – | < 10 | 369 | 2.3e-10 | – | – | chimeric antibody c213B10 (antibody, human IgG1, kappa) heavy: not shown light: DIQMTQTTSSLSASLGDRVTISCRASQDISKYLNWYQQQPDGTIKLLIYYTSRLHSGVPSRFSGRGSGTDYSLTITNLEQEDIATYFCQQGSALPYTFGGGTKLEIKRTVAAPSVFIFPPSDEQLKSGTASVVCLLNNFYPREAKVQWKVDNALQSGNSQESVTEQDSKDSTYSLSSTLTLSKADYEKHKVYACEVTHQGLSSPVTKSFNRGEC | –
7 | > 80 | 0.112 | – | – | – | 30 | 243 | murine antibody 219D6 (hybridoma CNCM I-4736) (antibody, V domains shown, also called m219D6) VH: QVQLQQSGPELVKPGDSVKMSCKASGYSFTSYFIHWVKQRPGQGLEWIGWIWPGDGSTKYNEKFKGKTTLTTDKSSSTAYMFLNSLTSEDSAVYFCASPMITPNYAMDYWGQGASVTVSS VL: DIQMTQTTSSLSASLGDRVTISCRASQDISKYLNWYQQQPDGTVKLLIYYTSRLHSGVPSRFSGRGSGTDYSLTISNLEQEDIATYFCQQGSTLPYTFGGGTKLEIK | –
8 | > 80 | 0.127 | – | – | – | 30 | 271 | murine antibody 213B10 (hybridoma CNCM I-4774) (antibody, V domains shown, also called m213B10) VH: QVQLQQSGSELVKPGASVKMSCKASGYTFTSYYIHWVKQRPGQGLEWIGWIWPGDGSTKYNERFKGKTTLTADKSSSTAYMFLSSLTSEDSAVYFCASPMITPNYAMDYWGQGASVTVSS VL: DIQMTQTTSSLSASLGDRVTISCRASQDISKYLNWYQQQPDGTIKLLIYYTSRLHSGVPSRFSGRGSGTDYSLTITNLEQEDIATYFCQQGSALPYTFGGGTKLEIK | –
9 | – | – | < 10 | 353 | 4.4e-10 | – | – | chimeric antibody c219D6 (antibody, human IgG1, kappa, V domains shown) VH: QVQLQQSGPELVKPGDSVKMSCKASGYSFTSYFIHWVKQRPGQGLEWIGWIWPGDGSTKYNEKFKGKTTLTTDKSSSTAYMFLNSLTSEDSAVYFCASPMITPNYAMDYWGQGASVTVSS VL: DIQMTQTTSSLSASLGDRVTISCRASQDISKYLNWYQQQPDGTVKLLIYYTSRLHSGVPSRFSGRGSGTDYSLTISNLEQEDIATYFCQQGSTLPYTFGGGTKLEIKR | –
10 | > 80 | 0.102 | – | – | – | 29 | 275 | murine antibody 214F8 (hybridoma CNCM I-4775) (antibody, V domains shown, also called m214F8) VH: QVQLQQSGSELVKPGASVKLSCKASGYTFTSYYIHWVKQRPGQGLEWIGWIWPGDGSTKYNERFKGKTTLTADKSSSTAYMFLSSLTSEDSAVYFCASPMITPNYAMDYWGQGASVTVSS VL: DIQMTQTTSSLSASLGDRVTFSCRASQDISKYLNWYQQQPDGTIKLLIYYTSRLHSGVPSRFSGRGSGTDYSLTITNLEQEDIATYFCQQGSALPYTFGGGTKLEIK | MCF7 internalisation assay: MFI 37°C [7]: 111 MFI
11 | – | – | < 10 | 403 | 2.2e-10 | – | – | chimeric antibody c214F8 (antibody, human IgG1, kappa) heavy: not shown light: DIQMTQTTSSLSASLGDRVTFSCRASQDISKYLNWYQQQPDGTIKLLIYYTSRLHSGVPSRFSGRGSGTDYSLTITNLEQEDIATYFCQQGSALPYTFGGGTKLEIKRTVAAPSVFIFPPSDEQLKSGTASVVCLLNNFYPREAKVQWKVDNALQSGNSQESVTEQDSKDSTYSLSSTLTLSKADYEKHKVYACEVTHQGLSSPVTKSFNRGEC | –
